Data reported in patent publication US20210404962A1.

Experiments:
[1] = target: GFP1-10 (large fragment of GFP) (Aequorea victoria (Water jellyfish) (Mesonema victoria)) [GFP: P42212]; test: fluorescence reconstitution, pseudo-first order, one phase association fit
[2] = target: GFP1-10 (large fragment of GFP) (Aequorea victoria (Water jellyfish) (Mesonema victoria)) [GFP: P42212]; test: fluorescence reconstitution kinetics, calculated from kobs at varied GFP11 concentrations
[3] = target: GFP1-10 (large fragment of GFP) (Aequorea victoria (Water jellyfish) (Mesonema victoria)) [GFP: P42212]; test: fluorescence reconstitution, pseudo-first order, one phase association fit; GFP11 concentration not stated
[4] = target: GFP1-10 (large fragment of GFP) (Aequorea victoria (Water jellyfish) (Mesonema victoria)) [GFP: P42212]; test: fluorescence increase over time with varied GFP11 peptide and purified GFP1-10 at 3 mM, one site binding model
[5] = target: GFP1-10 (large fragment of GFP) (Aequorea victoria (Water jellyfish) (Mesonema victoria)) [GFP: P42212]; test: stopped-flow fluorescence reconstitution, pseudo-first order, one phase association fit; 50 nM GFP11, excess GFP1-10

half time [1]: 95 s | kon [2]: 760000 M⁻¹ s⁻¹ | kobs [3]: 0.007 s⁻¹ | Kd [4]: 481 µM | kobs [5]: 0.003 s⁻¹
Substance: GFP11 peptide (chemically synthesized small fragment of split GFP; variant not stated)
